# Reference: article PMC11406360, “The enzymatic oxygen sensor cysteamine dioxygenase binds its protein substrates through their N-termini” (The Journal of Biological Chemistry, 2024)
# *1 amine or outer side, *2 acyl side, *3 side chain or, on linkers, in order; H or OH if unused. Where a SMILES comes first, the peptide text is derived from it. Where no end group is shown, it is not given here. [ ]: non-standard residue; d: D form. Cys(O2H) = cysteine sulfinic acid (N-terminal cysteine sulfinylated), O=C([C@H](CS(=O)O[*:3])N[*:1])[*:2]
# Columns and labels:
# [1] = target: T1, ADO (2-aminoethanethiol dioxygenase), iron-bound wild type (Homo sapiens, UniProt Q96SZ5); assay: SPR binding of peptide/protein substrates to immobilised ADO; settings: 4 °C; for Kd / Equilibrium dissociation constant KD: SPR steady state, 1:1 binding model, biotinylated ADO on Biotin CAP chip, 20 mM Hepes pH 7.5, 500 mM NaCl, 10 mM DTT, 0.1% tween-20, geometric mean (± SD) of minimum three independent measurements; for Kd: read-out: Equilibrium dissociation constant KD; for Fold improvement in binding affinity (stronger) relative to native 14-residue peptide: relative to native IL32 peptide
# T1 construct: Full-length human ADO (UniProt ID: Q96SZ5) was cloned; made in house; host or cells: Rosetta2(DE3) Escherichia coli
# T1 sequence (Q96SZ5 1-270): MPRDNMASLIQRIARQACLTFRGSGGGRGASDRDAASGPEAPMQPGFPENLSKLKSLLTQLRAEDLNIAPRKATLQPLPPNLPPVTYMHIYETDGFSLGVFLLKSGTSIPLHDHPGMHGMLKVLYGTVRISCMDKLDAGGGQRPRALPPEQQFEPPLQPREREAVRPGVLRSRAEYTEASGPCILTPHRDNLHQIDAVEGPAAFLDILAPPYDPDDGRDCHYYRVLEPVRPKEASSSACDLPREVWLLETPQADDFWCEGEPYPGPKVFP
# Description: ADO catalyzes the O2-dependent sulfinylation of Nt-cys residues, which reportedly bind to the iron cofactor in a monodentate arrangement through ligation of the thiol group ([14], [15]). To test the importance of Nt-cys modifications and substitutions on ADO association, a SPR assay was established. […] Data collected under steady state conditions is presented in the main text and kinetic constants are provided in the Tables S1–S8 (alongside steady state measurements). All measurements were collected at 4 °C to minimize enzyme activity.
# SPR measurements were made using a Biacore T200 (Cytiva) instrument and data were analyzed using the Biacore Insight Evaluation Software (Cytiva; https://www.cytivalifesciences.com/en/us/shop/protein-analysis/spr-label-free-analysis/spr-software-and-extensions/biacore-insight-evaluation-software-p-23528). Biotinylated-ADO was immobilized on a Biotin CAP chip (Cytiva) with a target density of ∼2500 to 3000 RU and peptide/protein substrates were injected over the chip. […] A buffer comprising 20 mM Hepes pH 7.5, 500 mM NaCl, 10 mM DTT, and 0.1% (v/v) tween-20 was used as the running buffer at a flow rate of 50 μl/min.
# For metal-chelation experiments, a mixture of 10 mM 1, 10-phenanthroline and 100 mM EDTA (pH 8) was injected onto the chip using 10 × 60 s injections at a 100 μl/min flow rate. […] The instrument and chip were primed into buffer excluding reducing agents before conducting metal chelation and iron reconstitution.
# [2] = target: T2, 2-aminoethanethiol (cysteamine) dioxygenase (ADO), biotinylated, for SPR (human, UniProt Q96SZ5 1-270, biotin (N terminally biotinylated; 0.2 mM biotin added at induction)); assay: SPR
# T2 chain: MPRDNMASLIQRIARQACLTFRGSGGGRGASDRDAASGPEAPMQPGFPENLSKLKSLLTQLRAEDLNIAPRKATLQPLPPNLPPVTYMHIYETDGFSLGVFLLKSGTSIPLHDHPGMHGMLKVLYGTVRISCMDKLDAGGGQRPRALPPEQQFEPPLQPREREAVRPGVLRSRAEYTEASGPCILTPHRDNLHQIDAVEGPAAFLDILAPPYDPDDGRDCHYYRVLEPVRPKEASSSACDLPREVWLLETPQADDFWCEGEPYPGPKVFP
# [3] = target: T3, 2-aminoethanethiol (cysteamine) dioxygenase (ADO), biotinylated, for SPR (human, UniProt Q96SZ5 1-270, biotin (N terminally biotinylated; 0.2 mM biotin added at induction)); assay: SPR; Biacore T200; biotinylated ADO immobilized on a Biotin CAP chip (∼2500 to 3000 RU), peptide/protein substrates injected; 4 °C; 20 mM Hepes pH 7.5, 500 mM NaCl, 10 mM DTT, 0.1% tween-20; 50 μl/min; multicycle, equilibrium steady state affinity 1:1 binding model; settings: both partners purified
# T3 construct: 2-aminoethanethiol (cysteamine) dioxygenase (ADO), human, UniProt Q96SZ5, full length; In the chelation experiments the metal was removed and iron put back on the chip (see assays a2, a3); Used also as the ADO of the functional rows, although the enzyme assays used the pET28a-ADO construct (N-terminal His tag); also called WT ADO; native ADO; source: E. coli Rosetta2(DE3), pQE80L-Navi construct, …
# T3 sequence (looked up): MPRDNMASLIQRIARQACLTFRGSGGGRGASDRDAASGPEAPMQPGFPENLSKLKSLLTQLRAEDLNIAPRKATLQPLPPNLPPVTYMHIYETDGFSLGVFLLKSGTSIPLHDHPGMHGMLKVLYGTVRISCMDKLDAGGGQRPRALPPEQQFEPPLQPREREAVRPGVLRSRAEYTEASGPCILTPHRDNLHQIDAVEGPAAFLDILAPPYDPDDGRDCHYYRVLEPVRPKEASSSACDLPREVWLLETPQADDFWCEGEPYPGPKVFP
molecule,measurement,setting,value
SKGLAALPHSCLER-NH2 [RGS5-C2S],Kd,[1],42000 ± 5500 nM
NC(=O)[C@@H]1CCCN1C(=O)[C@H](Cc1ccccc1)NC(=O)[C@@H](N)CS [IL32 tripeptide] (H-Cys-Phe-Pro-NH2; C-terminus assumed),Kd,[1],130 ± 3.7 nM
same,Fold improvement in binding affinity (stronger) relative to native 14-residue peptide,[1]; SPR,~2 fold
H-CAPKVLSDDMKKLK-NH2 (C-terminus assumed) [IL32-F3A],Fold decrease in binding affinity (weaker/higher KD) relative to native 14-residue peptide,"[1]; SPR, relative to native RGS5 or IL32 peptide",~8 fold
K3R: RGS5 third position mutant peptide (CRGLAALPHSCLER),Equilibrium dissociation constant KD,[1],the most tolerated
H-CFPAVLSDDMKKLK-NH2 (C-terminus assumed) [IL32-K5A],Fold improvement in binding affinity (stronger) relative to native 14-residue peptide,[1]; SPR,approximately 2 fold
CC(C)C[C@H](NC(=O)CNC(=O)[C@H](CCCCN)NC(=O)[C@@H](N)CS)C(=O)N[C@@H](C)C(=O)N[C@@H](C)C(=O)N[C@@H](CC(C)C)C(=O)N1CCC[C@H]1C(=O)N[C@@H](Cc1c[nH]cn1)C(=O)N[C@@H](CO)C(=O)N[C@@H](CS)C(=O)N[C@@H](C)C(=O)N[C@@H](CCC(=O)O)C(=O)N[C@@H](CCCNC(=N)N)C(N)=O [RGS5-L13A] (H-CKGLAALPHSCAER-NH2),Kd,[1],260 ± 32 nM
Ac-RGS5: Nt-acetylated RGS5 peptide (Ac-CKGLAALPHSCLER; cysteine pairing not given here),Equilibrium dissociation constant KD,[1],No binding
K3Y: RGS5 third position mutant peptide (CYGLAALPHSCLER),Equilibrium dissociation constant KD,[1],the most tolerated
CC(C)C[C@H](NC(=O)CNC(=O)[C@H](CCCCN)NC(=O)[C@@H](N)CS)C(=O)N[C@@H](C)C(=O)N[C@@H](C)C(=O)N[C@@H](CC(C)C)C(=O)N1CCC[C@H]1C(=O)N[C@@H](Cc1c[nH]cn1)C(=O)N[C@@H](CO)C(=O)N[C@@H](CS)C(=O)N[C@@H](CC(C)C)C(=O)N[C@@H](C)C(=O)N[C@@H](CCCNC(=N)N)C(N)=O [RGS5-E14A] (H-CKGLAALPHSCLAR-NH2),Kd,[1],260 ± 42 nM
RGS5-C2A: RGS5 peptide with Nt-cys to alanine (AKGLAALPHSCLER),Equilibrium dissociation constant KD,[1],No binding
RGS5-Ox: Nt-sulfinylated RGS5 peptide acquired through preincubation with ADO ([Cys(O2H)]KGLAALPHSCLER),Equilibrium dissociation constant KD,[1],No binding
H-CFAKVLSDDMKKLK-NH2 (C-terminus assumed) [IL32-P4A],Fold improvement in binding affinity (stronger) relative to native 14-residue peptide,[1]; SPR,approximately 2 fold
CC(C)C[C@H](NC(=O)CNC(=O)[C@H](CCCCN)NC(=O)[C@@H](N)CS)C(=O)N[C@@H](C)C(=O)N[C@@H](C)C(=O)N[C@@H](CC(C)C)C(=O)N[C@@H](C)C(=O)N[C@@H](Cc1c[nH]cn1)C(=O)N[C@@H](CO)C(=O)N[C@@H](CS)C(=O)N[C@@H](CC(C)C)C(=O)N[C@@H](CCC(=O)O)C(=O)N[C@@H](CCCNC(=N)N)C(N)=O [RGS5-P9A] (H-CKGLAALAHSCLER-NH2),Kd,[1],250 ± 23 nM
K3L: RGS5 third position mutant peptide (CLGLAALPHSCLER),Equilibrium dissociation constant KD,[1],the most tolerated
K3W: RGS5 third position mutant peptide (CWGLAALPHSCLER),Equilibrium dissociation constant KD,[1],the most tolerated
CKGLAALPHSALER [RGS5-C12A],Kd,[2],300 nM
CKGLAALPHACLER [RGS5-S11A],Kd,[2],350 nM
"CFPAVLSDDMKKLK (peptide, UniProt P24001 2-15, looked up, IL32 residues 2-15 (initiating methionine denoted as 1), K5A; source: synthetic peptide (SPPS, HPLC purified)) [IL32-K5A peptide]",Kd,[3],140 ± 2 nM
"RGS5^FL-C2A: full-length RGS5 C2A mutant (protein, left off: His tag, N-terminal, cleaved | SUMO, N-terminal, cleaved, full-length RGS5 C2A mutant) MAKGLAALPHSCLERAKEIKIKLGILLQKPDSVGDLVIPYNEKPEKPAKTQKTSLDEALQWRDSLDKLLQNNYGLASFKSFLKSEFSEENLEFWIACEDYKKIKSPAKMAEKAKQIYEEFIQTEAPKEVNIDHFTKDITMKNLVEPSLSSFDMAQKRIHALMEKDSLPRFVRSEFYQELIK",Equilibrium dissociation constant KD,[1],prevented binding
CKGLAAAPHSCLER [RGS5-L8A],Kd,[2],310 nM
"SKGLAALPHSCLER (peptide, UniProt O15539 2-15, looked up, RGS5 residues 2-15 (initiating methionine denoted as 1), Nt-cys to serine; source: synthetic peptide (SPPS, HPLC purified)) [RGS5-C2S peptide]",Kd,[3],~40000 nM
"CAPKVLSDDMKKLK (peptide, UniProt P24001 2-15, looked up, IL32 residues 2-15 (initiating methionine denoted as 1), F3A; source: synthetic peptide (SPPS, HPLC purified)) [IL32-F3A peptide]",Kd,[3],2200 ± 72 nM
full-length RGS5 (RGS5^FL) (natural protein) CKGLAALPHSCLERAKEIKIKLGILLQKPDSVGDLVIPYNEKPEKPAKTQKTSLDEALQWRDSLDKLLQNNYGLASFKSFLKSEFSEENLEFWIACEDYKKIKSPAKMAEKAKQIYEEFIQTEAPKEVNIDHFTKDITMKNLVEPSLSSFDMAQKRIHALMEKDSLPRFVRSEFYQELIK,Kd,[3],3000 ± 58 nM
RGS5^FL-C2S (natural protein) SKGLAALPHSCLERAKEIKIKLGILLQKPDSVGDLVIPYNEKPEKPAKTQKTSLDEALQWRDSLDKLLQNNYGLASFKSFLKSEFSEENLEFWIACEDYKKIKSPAKMAEKAKQIYEEFIQTEAPKEVNIDHFTKDITMKNLVEPSLSSFDMAQKRIHALMEKDSLPRFVRSEFYQELIK,Kd,[3],63000 ± 610 nM
"CFPKVASDDMKKLK (peptide, UniProt P24001 2-15, looked up, IL32 residues 2-15 (initiating methionine denoted as 1), L7A; source: synthetic peptide (SPPS, HPLC purified)) [IL32-L7A peptide]",Kd,[3],570 ± 12 nM
CKGLAALAHSCLER [RGS5-P9A],Kd,[2],250 nM
CKGLAALPHSCLEA [RGS5-R15A],Kd,[2],210 nM
CKGAAALPHSCLER [RGS5-L5A],Kd,[2],220 nM
"SFPKVLSDDMKKLK (peptide, UniProt P24001 2-15, looked up, IL32 residues 2-15 (initiating methionine denoted as 1), Nt-cys to serine; source: synthetic peptide (SPPS, HPLC purified)) [IL32-C2S peptide]",Kd,[3],~40000 nM
"CFAKVLSDDMKKLK (peptide, UniProt P24001 2-15, looked up, IL32 residues 2-15 (initiating methionine denoted as 1), P4A; source: synthetic peptide (SPPS, HPLC purified)) [IL32-P4A peptide]",Kd,[3],150 ± 1.2 nM
"CAGLAALPHSCLER (peptide, UniProt O15539 2-15, looked up, RGS5 residues 2-15 (initiating methionine denoted as 1), K3A; source: synthetic peptide (SPPS, HPLC purified)) [RGS5-K3A peptide]",Kd,[3],540 ± 88 nM
"CDGLAALPHSCLER (peptide, UniProt O15539 2-15, looked up, RGS5 residues 2-15 (initiating methionine denoted as 1), K3D; source: synthetic peptide) [RGS5-K3D peptide]",Kd,[3],39000 ± 1200 nM
"CYGLAALPHSCLER (peptide, UniProt O15539 2-15, looked up, RGS5 residues 2-15 (initiating methionine denoted as 1), K3Y; source: synthetic peptide) [RGS5-K3Y peptide]",binding result,[3],binds
"CRGLAALPHSCLER (peptide, UniProt O15539 2-15, looked up, RGS5 residues 2-15 (initiating methionine denoted as 1), K3R; source: synthetic peptide) [RGS5-K3R peptide]",binding result,[3],binds
"CWGLAALPHSCLER (peptide, UniProt O15539 2-15, looked up, RGS5 residues 2-15 (initiating methionine denoted as 1), K3W; source: synthetic peptide) [RGS5-K3W peptide]",binding result,[3],binds
"CLGLAALPHSCLER (peptide, UniProt O15539 2-15, looked up, RGS5 residues 2-15 (initiating methionine denoted as 1), K3L; source: synthetic peptide) [RGS5-K3L peptide]",binding result,[3],binds
"CKALAALPHSCLER (peptide, UniProt O15539 2-15, looked up, RGS5 residues 2-15 (initiating methionine denoted as 1), G4A; source: synthetic peptide (SPPS, HPLC purified)) [RGS5-G4A peptide]",Kd,[3],710 ± 15 nM
"CKKLAALPHSCLER (peptide, UniProt O15539 2-15, looked up, RGS5 residues 2-15 (initiating methionine denoted as 1), G4K; source: synthetic peptide) [RGS5-G4K peptide]",Kd,[3],12000 ± 1500 nM
"CKPLAALPHSCLER (peptide, UniProt O15539 2-15, looked up, source: synthetic peptide) [RGS5-G4P peptide]",binding result,[3],binds
